One block for each binder: values may come before it.
What was measured:
[1] = molecular target: G-actin (monomeric actin used in microscale thermophoresis) (rabbit, UniProt P68135 1-377); assay: MST; 2 µM G-actin mixed 1:1 with Aip5 loop peptide (highest stock 2 mM); G-buffer with 0.05% Tween 20; 25 °C; Kd mode fit; conditions: both partners purified
[2] = molecular target: the molecule itself; assay: crystal structure; X-ray; sitting drop vapor diffusion at 20 °C; Aip5-C by SeMet-MAD, Aip5-C-3m by molecular replacement

- Kd [1]: 99 ± 76 µM
B1: Aip5 loop peptide (TSLAGGGFHM) (peptide)
peptide: TSLAGGGFHM
notes: also called loop containing peptide; peptides of Aip5 loop

B2: Aip5-C-3m (L1150A, N1162A, S1165C) (domain or fragment, S. cerevisiae, UniProt P43597 1110-1233, looked up)
chain: DSTTQTTEQSKKNNDKPQDVITTSEIRKLNEKEPVYIYTSAAGGGFHMIPRTARLCTILTANRIPFTYRDLGTDDEARKVWKTFSKGRSLPGVVRGHNDLIGNWEEIEEANEDYKLRELIYDTI
notes: Aip5 (YFR016C), budding yeast, residues 1110-1233 with three point mutations; Homodimer in the crystal; also called triple mutant Aip5-C-3m; source: E. coli BL21 (DE3), purified
- binding result [2]: binds

— article PMC6838200, “Polarisome scaffolder Spa2-mediated macromolecular condensation of Aip5 for actin polymerization” (Nature Communications, 2019)
